This is an account of results in patent US20140369997A1, “Pharmaceutical composition for a foaming eye drop” (PASE, priority 2011, published 2014).

The nature of the series: Foaming of eye drop solution containing a foaming agent mixed with gas. Type of series: physicochemical. The text has this: The preferred embodiment is a solution containing between 0.25%-5% of hydroxypropyl methylcellulose. This has been proven to produce a foam that is capable of holding enough gas to result in a 90% reduction in volume of the medication distributed in a drop. In other words the foam that is created is 90% gas and 10% liquid. The addition of hydroxypropyl methylcellulose is one of many ways that the pharmaceutical composition of the eye medication can be changed.
Any preferred additive should have properties similar to hydroxypropyl methylcellulose such that a large reduction in volume of liquid from the foamed form to the liquid form is obtained. The additive should be chosen to reduce the risk of eye irritation and to minimize any potential binding of the active ingredient. Hydroxypropyl methylcellulose is especially preferred because it is already known to be a safe ingredient to be applied to the eye as it is currently used in many eye drops to lubricate the eye. It also produces a more viscous solution which increases the retention time in the eye, thus giving the medication more time to be absorbed.

On to albumin, for which the “consistency of foam produced” value (albumin concentration between 1%-25%) is reported as “foam of the desired consistency”. The foaming agent quality entry (tested as foaming agent) is recorded as “excellent foaming agent”.
